From patent publication US20080274129A1 (BIOTECH SYNERGY, published 2008)
Non-standard residues stand in square brackets, D forms with d. No end group written: not given here. Aib = CC(C)(N)C(=O)O

Assays:
[1] = biological target: T1, HLA-A2.1 molecule (purified) (human); assay: peptide binding to purified HLA-A2.1 molecule
T1 construct: limits of the heavy chain and presence of b2m in the preparation are not described; also called HLA-A*0201; prototype HLA-A2.1 molecule

HLA-A2 supertype alleles = assay: peptide binding to purified MHC molecules of the HLA-A2 supertype; count of alleles bound

binding result [1] | No. A2 Alleles Crossbound (HLA-A2 supertype alleles) [alleles] | Binder
binds | 5 | KVAEIVHFL (also called peptide 1352.03) [MAGE-3.112I5]
binds | 5 | IMIGHLVGV (also called peptide 1352.02) [CEA.691H5]
– | 4 | KL[Aib]PVQLWV (not fully specified) [p53.139L2B3]
